According to patent US20260116966A1 (KEYMED BIOSCIENCES CHENGDU, published 2026):

B1: GPRC5D × BCMA × CD3 triTCE-v1 trispecific antibody (other)
light 1: DIVLTQSPASLAVSPGQRATITCRASKSVSTSGYSYMHWYQKKPGQPPKLLIYLASNLESGVPARFSGSGSGTDFTLTINPVEAEDTANYYCQHSRELPWTFGQGTKVEIKRTVAAPSVFIFPPSDEQLKSGTASVVCLLNNFYPREAKVQWKVDNALQSGNSQESVTEQDSKDSTYSLSSTLTLSKADYEKHKVYACEVTHQGLSSPVTKSFNRGEC
heavy 1: DIQMTQSPSSLSASVGDRVTITCQASQNVGTNVAWYQQKPGQAPKALIYSASYLNSGVPSRFSGSGSGTDFTFTISSLQPEDIATYFCQQYNSYLLTFGCGTKVEIKGGGGSGGGGSGGGGSQVQLVQSGAEVKKPGSSVKVSCKASGYSFTGYTMNWVRQAPGQCLEWMGLINPYNGGTRYNQKFQGRVTITADESTSTAYMELSSLRSEDTAVYYCARWALRYGMDYWGQGTLVTVSSGGGGSGGGGSGGGGSQVQLVQSGSELKKPGASVKVSCKASGYIFTNFGMNWVREAPGQGLEWMGWINTYTGEQIYADGFTGRFVFSLDTSVSTAYLQISSLKAEDTAVYFCARGEIYYGYDVGFVYWGQGTLVTVSSASTKGPSVFPLAPCSRSTSESTAALGCLVKDYFPEPVTVSWNSGALTSGVHTFPAVLQSSGLYSLSSVVTVPSSSLGTKTYTCNVDHKPSNTKVDKRVESKYGPPCPPCPAPEFEGGPSVFLFPPKPKDTLMISRTPEVTCVVVDVSQEDPEVQFNWYVDGVEVHNAKTKPREEQFNSTYRVVSVLTVLHQDWLNGKEYKCKVSNKGLASSIEKTISKAKGQPREPQVCTLPPSQEEMTKNQVSLSCAVKGFYPSDIAVEWESNGQPENNYKTTPPVLDSDGSFFLVSKLTVDKSRWQEGNVFSCSVMHEALHNHYTQKSLSLSLGK
light 2: QAVVTQEPSLTVSPGGTVTLTCRSSTGAVTTSNYANWVQEKPGQAPRGLIGGTNKRAPWTPARFSGSLLGGKAALTITGAQAEDEAEYYCVLWYSNLWVFGGGTKLTVLGQPKAAPSVTLFPPSSEELQANKATLVCLISDFYPGAVTVAWKADSSPVKAGVETTTPSKQSNNKYAASSYLSLTPEQWKSHRSYSCQVTHEGSTVEKTVAPTECS
heavy 2: EVQLVESGGGLVQPGGSLRLSCAASGFTFNTYAMNWVRKAPGKGLEWVGRIRSKYNNYATYYADSVKDRFTISRDDSKNSLYLQMNSLKTEDTAVYYCVRHGNFGNSYVSWFAYWGQGTLVTVSSASTKGPSVFPLAPCSRSTSESTAALGCLVKDYFPEPVTVSWNSGALTSGVHTFPAVLQSSGLYSLSSVVTVPSSSLGTKTYTCNVDHKPSNTKVDKRVESKYGPPCPPCPAPEFEGGPSVFLFPPKPKDTLMISRTPEVTCVVVDVSQEDPEVQFNWYVDGVEVHNAKTKPREEQFNSTYRVVSVLTVLHQDWLNGKEYKCKVSNKGLASSIEKTISKAKGQPREPQVYTLPPCQEEMTKNQVSLWCLVKGFYPSDIAVEWESNGQPENNYKTTPPVLDSDGSFFLYSKLTVDKSRWQEGNVFSCSVMHEALHNHYTQKSLSLSLGK
notes: Trispecific antibody: GPRC5D scFv fused to the N-terminus of the heavy chain of the BCMA arm
B2: GPRC5D × BCMA × CD3 triTCE-v3 trispecific antibody (other)
light 1: B1 light 2
heavy 1: DIQMTQSPSSLSASVGDRVTITCQASQNVGTNVAWYQQKPGQAPKALIYSASYLNSGVPSRFSGSGSGTDFTFTISSLQPEDIATYFCQQYNSYLLTFGCGTKVEIKGGGGSGGGGSGGGGSQVQLVQSGAEVKKPGSSVKVSCKASGYSFTGYTMNWVRQAPGQCLEWMGLINPYNGGTRYNQKFQGRVTITADESTSTAYMELSSLRSEDTAVYYCARWALRYGMDYWGQGTLVTVSSGGGGSGGGGSGGGGSEVQLVESGGGLVQPGGSLRLSCAASGFTFNTYAMNWVRKAPGKGLEWVGRIRSKYNNYATYYADSVKDRFTISRDDSKNSLYLQMNSLKTEDTAVYYCVRHGNFGNSYVSWFAYWGQGTLVTVSSASTKGPSVFPLAPCSRSTSESTAALGCLVKDYFPEPVTVSWNSGALTSGVHTFPAVLQSSGLYSLSSVVTVPSSSLGTKTYTCNVDHKPSNTKVDKRVESKYGPPCPPCPAPEFEGGPSVFLFPPKPKDTLMISRTPEVTCVVVDVSQEDPEVQFNWYVDGVEVHNAKTKPREEQFNSTYRVVSVLTVLHQDWLNGKEYKCKVSNKGLASSIEKTISKAKGQPREPQVYTLPPCQEEMTKNQVSLWCLVKGFYPSDIAVEWESNGQPENNYKTTPPVLDSDGSFFLYSKLTVDKSRWQEGNVFSCSVMHEALHNHYTQKSLSLSLGK
light 2: B1 light 1
heavy 2: QVQLVQSGSELKKPGASVKVSCKASGYIFTNFGMNWVREAPGQGLEWMGWINTYTGEQIYADGFTGRFVFSLDTSVSTAYLQISSLKAEDTAVYFCARGEIYYGYDVGFVYWGQGTLVTVSS
notes: Trispecific antibody: GPRC5D scFv fused to the N-terminus of the heavy chain of the CD3 arm
B3: GPRC5D × BCMA × CD3 triTCE-v4 trispecific antibody (other)
light 1: B1 light 2
heavy 1: QVQLVQSGAEVKKPGSSVKVSCKASGYSFTGYTMNWVRQAPGQCLEWMGLINPYNGGTRYNQKFQGRVTITADESTSTAYMELSSLRSEDTAVYYCARWALRYGMDYWGQGTLVTVSSGGGGSGGGGSGGGGSDIQMTQSPSSLSASVGDRVTITCQASQNVGTNVAWYQQKPGQAPKALIYSASYLNSGVPSRFSGSGSGTDFTFTISSLQPEDIATYFCQQYNSYLLTFGCGTKVEIKGGGGSGGGGSGGGGSEVQLVESGGGLVQPGGSLRLSCAASGFTFNTYAMNWVRKAPGKGLEWVGRIRSKYNNYATYYADSVKDRFTISRDDSKNSLYLQMNSLKTEDTAVYYCVRHGNFGNSYVSWFAYWGQGTLVTVSSASTKGPSVFPLAPCSRSTSESTAALGCLVKDYFPEPVTVSWNSGALTSGVHTFPAVLQSSGLYSLSSVVTVPSSSLGTKTYTCNVDHKPSNTKVDKRVESKYGPPCPPCPAPEFEGGPSVFLFPPKPKDTLMISRTPEVTCVVVDVSQEDPEVQFNWYVDGVEVHNAKTKPREEQFNSTYRVVSVLTVLHQDWLNGKEYKCKVSNKGLASSIEKTISKAKGQPREPQVYTLPPCQEEMTKNQVSLWCLVKGFYPSDIAVEWESNGQPENNYKTTPPVLDSDGSFFLYSKLTVDKSRWQEGNVFSCSVMHEALHNHYTQKSLSLSLGK
light 2: B1 light 1
heavy 2: B2 heavy 2
notes: as for B2
B4: anti-GPRC5D chimeric antibody 2E1 (antibody, V domains shown)
VH: QVQLQQPGAELVKPGASVKLSCKASGYTFTRYWMHWVKQRPGQGLDWIGEFNPSNGRINYNEKFKNKATLTIDKSSSTAYMQLSSLTSEDSAVYYCTRGFAYWGQGTLVTVSA
VL: QIVLTQSPAIMSASPGERVTMTCSASSTVSYIHWYQQKSGTSPKRWIYDTSKLASGVPARFSGSGSGTSYSLTISSMEAEDAATYYCQQWTTNPWTFGGGTKLEIK
B5: anti-GPRC5D chimeric antibody 2F1 (antibody, V domains shown)
VH: EVLLQQSGPELVKPGTSMKISCKASGYSFTGYTMNWVKQRHGKNLEWIGLINPYNGGTRYNQKFKGRATLTVDKSSSTAYMELLSLTSEDSAVYYCARWALRYGMDYWGQGTSVTVSS
VL: DIVMTQSQKFMSTSVGDRVSVTCKASQNVGTNVAWYQQKPGHSPKALIYSASYRNSGVPDRFTGSGSGTDFTLTISNVQSEDLAEYFCQQYNSYLLTFGGGTKLELK
B6: anti-GPRC5D chimeric antibody 8D1 (antibody, V domains shown)
VH: QVQLQQPGAELVKPGASVKLSCKASGYTFTSYYMYWVKQRPGQGLEWIGGINPSNGGTKYNEKFKSKATLTVDKSSSTAFMQLSSLTSEDSAVYYCTRGSLRSYYYAMDYWGQGTSVTVSS
VL: DIQMTQTTSSLSASLGDRVTISCRASQDISNYLNWYQQKPDGTVKLLIYYTSRLHSGVPSRFSGSGSGTDYSLTISNLEQEDLATYFCQQGYSLPYTFGGGTKLEIK

Legend:
[1] = target: T1, CD3 receptor on the surface of Jurkat cells (human, UniProt P07766 23-207); assay: flow cytometry on Jurkat cells
T1 construct: whole, on cells; Whole CD3/TCR complex on Jurkat cells; also called Jurkat T
Procedure: Jurkat cells in logarithmic growth phase were added with 200 μg/mL mouse IgG, and allowed to stand in an ice bath for 30 min. The cells were adjusted with 4% calf serum to 5×10⁵ cells/mL. 100 μL per well was added to a 96-well U-shaped plate, and centrifuged at 300 g. The supernatant was removed. 100 μL per well of serially diluted antibody was added, and incubated at 4° C. for 60 min. The secondary antibody 50 μL/well of Alexa Fluro647 labeled goat anti-human IgG Fc (1:300 dilution) was added, and incubated on ice for 20 min. After washing once, 50 μL/well of PI was added, incubated for 5 min, and detected by flow cytometry.

human GPRC5D [2] = target: T2, human GPRC5D (human, UniProt Q9NZD1 1-345); assay: cell-based or functional assay
human GPRC5D [3] = target: T2, human GPRC5D; assay: flow cytometry, HEK293-hGPRC5D cells
Procedure: Cell suspensions of HEK293-hGPRC5D and HEK293-hBCMA stably transfected cells in logarithmic growth phase were adjusted to 5×10⁵ cells/ml. Then, 100 μl/well of the cell suspension was added to a 96-well U-shaped plate, and centrifuged at 300 g for 5 min. The supernatant was discarded. 100 μL per well of serially diluted antibody was added, and incubated at 4° C. for 60 min. The secondary antibody 50 μL/well of Alexa Fluro647 labeled goat anti-human IgG Fc (1:300 dilution) was added, and incubated on ice for 20 min. After washing once, 50 μL/well of PI solution was added, incubated for 5 min, and detected by flow cytometry.

[4] = target: T3, biotinylated CD3 recombinant antigen (CD3εγ) (Homo sapiens (Human), UniProt P07766 23-126; P09693 23-116, Biotinylated; site and chemistry not stated. The letters do not carry the biotin.); assay: BLI, biotinylated antigen on SA probe, antibody as analyte
T3 construct: also called CD3e antigen; copies: 1 + 1

Cynomolgus GPRC5D = target: T4, Cynomolgus GPRC5D (Cynomolgus, UniProt Q9NZD1 1-343 (human entry)); assay: flow cytometry on CHO-cyGPRC5D cells
T4 construct: Full length, on stably transfected cells (HEK293-cyGPRC5D, CHO-cyGPRC5D); also called cyGPRC5D
T4 chain: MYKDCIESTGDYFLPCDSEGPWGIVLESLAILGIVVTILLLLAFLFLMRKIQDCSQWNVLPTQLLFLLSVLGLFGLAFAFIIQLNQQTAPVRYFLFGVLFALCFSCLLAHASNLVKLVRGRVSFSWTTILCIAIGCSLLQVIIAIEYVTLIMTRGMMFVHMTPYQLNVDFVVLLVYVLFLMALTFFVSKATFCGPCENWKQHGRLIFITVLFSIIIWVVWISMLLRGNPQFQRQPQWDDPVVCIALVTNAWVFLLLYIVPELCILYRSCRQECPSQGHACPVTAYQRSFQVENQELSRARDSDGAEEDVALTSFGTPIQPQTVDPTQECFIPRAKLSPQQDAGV
Procedure: (§1) The binding of the antibodies to human and Cynomolgus GPRC5D stably transfected cells was detected by flow cytometry. […] Then, 100 μl/well of the cell suspension was added to a 96-well U-shaped plate, and centrifuged at 300 g for 5 min. The supernatant was discarded. 100 μL per well of serially diluted antibody was added (initial concentration: 200 nM, 3-fold dilution, 12 gradients), and incubated at 4° C. for 45 min. The secondary antibody 50 μL/well of Alexa Fluro647 labeled goat anti-human IgG Fc (1:300 dilution) was added, incubated on ice for 45 min, and detected by flow cytometry.

human GPRC5D [5] = target: T2, human GPRC5D; assay: flow cytometry on CHO-hGPRC5D cells
Procedure: as §1

T2 sequence (Q9NZD1 whole entry): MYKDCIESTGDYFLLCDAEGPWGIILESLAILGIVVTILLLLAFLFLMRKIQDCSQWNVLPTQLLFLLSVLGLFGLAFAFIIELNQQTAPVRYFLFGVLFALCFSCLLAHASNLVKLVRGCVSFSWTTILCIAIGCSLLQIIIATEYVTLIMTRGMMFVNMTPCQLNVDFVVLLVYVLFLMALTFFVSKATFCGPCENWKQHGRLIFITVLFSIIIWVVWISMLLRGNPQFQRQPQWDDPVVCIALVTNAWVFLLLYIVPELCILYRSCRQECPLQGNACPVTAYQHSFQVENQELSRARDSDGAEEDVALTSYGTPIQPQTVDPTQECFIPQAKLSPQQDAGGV
T3 sequence (P07766 23-126 limits assumed, chain 1 of 2): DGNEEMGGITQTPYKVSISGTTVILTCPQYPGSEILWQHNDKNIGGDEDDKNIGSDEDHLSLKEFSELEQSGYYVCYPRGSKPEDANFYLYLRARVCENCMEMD
T3 sequence (P09693 23-116 limits assumed, chain 2 of 2): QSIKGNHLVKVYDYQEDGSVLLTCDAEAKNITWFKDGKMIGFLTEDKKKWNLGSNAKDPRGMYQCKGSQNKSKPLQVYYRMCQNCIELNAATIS
T1 sequence (P07766 23-207): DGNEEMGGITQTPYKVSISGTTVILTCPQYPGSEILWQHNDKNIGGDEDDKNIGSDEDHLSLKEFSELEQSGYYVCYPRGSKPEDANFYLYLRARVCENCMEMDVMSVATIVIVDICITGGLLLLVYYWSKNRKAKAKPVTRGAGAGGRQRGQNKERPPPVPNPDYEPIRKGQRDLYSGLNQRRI

Row | Binder | binding result [1] | TDCC EC50 (nM), HEK293-hGPRC5D (human GPRC5D [2]) [nM] | EC50 (human GPRC5D [3]) [nM] | Kd [4] [nM] | binding result (Cynomolgus GPRC5D) | binding result (human GPRC5D [5]) | EC50 (read off the curve) (Cynomolgus GPRC5D) [nM]
1 | B1 | binds | 0.074 | 5.7 |  |  |  | 
2 | B2 |  | 0.278 | 2.7 | 58.2 |  |  | 
3 | B3 |  | 0.446 | 9.9 | 64.4 |  |  | 
4 | B4 |  |  |  |  | binds | binds | 
5 | B5 |  |  |  |  | binds | binds | 
6 | B6 |  |  |  |  |  | binds | ~0.4
